The text below walks through data of patent US20240368260A1 (INSTITUT NATIONAL DE LA SANTE ET DE LA RECHERCHE MEDICALE, published 2024).

The target in experiment [1] is T1, recombinant human βIG-H3 (human, UniProt Q15582 24-683).
T1 construct: Bought recombinant protein; also called rhβIG-H3; rhbIG-H3
T1 sequence (looked up): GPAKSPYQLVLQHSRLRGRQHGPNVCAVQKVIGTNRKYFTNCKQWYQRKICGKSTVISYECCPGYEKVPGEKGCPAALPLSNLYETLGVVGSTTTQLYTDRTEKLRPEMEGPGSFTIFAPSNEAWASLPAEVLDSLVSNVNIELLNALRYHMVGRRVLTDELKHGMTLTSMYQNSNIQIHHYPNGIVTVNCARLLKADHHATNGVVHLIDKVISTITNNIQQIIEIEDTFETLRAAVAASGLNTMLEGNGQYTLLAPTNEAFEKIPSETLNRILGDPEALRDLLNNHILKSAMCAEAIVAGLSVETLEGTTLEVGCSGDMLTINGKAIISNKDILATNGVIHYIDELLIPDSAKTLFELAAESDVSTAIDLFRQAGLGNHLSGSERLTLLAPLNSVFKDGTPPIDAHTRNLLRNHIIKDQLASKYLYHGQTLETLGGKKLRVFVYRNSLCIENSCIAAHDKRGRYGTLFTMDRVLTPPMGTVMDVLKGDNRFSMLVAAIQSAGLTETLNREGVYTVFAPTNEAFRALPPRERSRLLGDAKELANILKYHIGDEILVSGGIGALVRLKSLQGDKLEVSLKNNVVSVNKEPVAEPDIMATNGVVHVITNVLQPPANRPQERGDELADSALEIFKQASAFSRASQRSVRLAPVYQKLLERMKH
Nature of the experiment: SPR single cycle kinetics, mAb captured via anti-human IgG (Fc) on CM5, hβIG-H3 5-100 nM as analyte, 1:1 model; SCK2 Fc4. As to the method: (§1) Anti-Human IgG (Fc) antibody is chemically grafted on a CM5 sensorchip using amine coupling according to the Cytivia 22064888AF notice. Briefly, surface is first activated by injection of a NHS-EDC mixture. Then, several injections (3 on the 10 available on the kit) of Anti-Human IgG (25 μg/ml in immobilization buffer) adjusting the contact time are performed. Finally, the surfaces are deactivated with ethanolamine 1M pH 8.5.
(§2) A negative control Ab is immobilized on sensor flowcell 1 (Fc 1) and positive control (chimeric 18B3 mAB) on Fc 2. 18B3 variants Abs are immobilized on Fc3 and Fc4:
(§3) Injection of increasing concentrations (5; 10; 25; 50; 100 nM) of antigen (hβIG-H3) during 180 s is performed on each flowcell. Short dissociations are performed in RB between each antigen concentration. After injection of the highest antigen concentration (100 nM), a dissociation in RB is recorded during 3600 s. [0348] Three similar cycles with five injections of RB are carried out before the cycle of Antigen in order to perform double subtraction procedure (Blank run). [0349] Three similar cycles with five injection of RB and a dissociation time of 600 s are performed before the blank runs in order to stabilize the system (Startup run).

Experiment [2] addresses T1, recombinant human βIG-H3. Nature of the experiment: SPR single cycle kinetics, mAb captured via anti-human IgG (Fc) on CM5, hβIG-H3 5-100 nM as analyte, 1:1 model; Fc4, first of two runs (run label misplaced in print). The procedure: as §1, §2, §3
Experiment [3] has as its target T1, recombinant human βIG-H3. Nature of the experiment: direct ELISA on coated rhβIG-H3, anti-human IgG-HRP. In general terms: An ELISA detects its analyte on a solid surface through an enzyme-linked reagent.

B1: 18B3 H330-V1.2/L228-V1 (antibody, human IgG1, kappa, V domains shown)
VH: QVQLVESGGGVVQPGGSLRLSCAASGFTFSDYYMYWVRQAPGKGLEWVATISDGGIYKYYADSVKGRFTISRDSSKNTLYLQMNSLRAEDTAVYYCVRGWDRYDSWFASWGQGTTVTVSS
VL: DIVMTQSPLSLPVTPGEPASMSCRSSQSLLYSSNQKNYLAWYLQKPGQSPQLLIYWGSTRESGVPDRFSGSGSGTDFTLKISRVEAEDVGVYYCQQYYRYPYTFGQGTKLEIKR
notes: also called H-330/L-228 V1.2
The term Kd denotes a measure of binding affinity in units of concentration. The koff is the rate constant with which the complex falls apart. For orientation: kon means the rate constant with which the complex forms. B1: in the experiment with recombinant human βIG-H3 [1], the Kd came out at 0.171 nM, the koff was 0.000478 s⁻¹ and the kon was determined as 2.79e+06 M⁻¹ s⁻¹. Besides, in the experiment with recombinant human βIG-H3 [2], the Kd was 0.12 nM, the koff was 0.000559 s⁻¹ and the kon stood at 4.66e+06 M⁻¹ s⁻¹. Moreover, the “ELISA Titer” value with recombinant human βIG-H3 [3] stood at 0.0036 µg/mL.
